Measurements taken from US20220153874A1 (NEURIMMUNE, published 2022).
Positions count from the first letter of the chain named. Numbers in names are those of the source. Ends that are not written are not given here.

T1: synthesized dipeptide repeat protein (GA)15: H-CHHHHHH(GA)15-OH
T1 construct: also called poly-GA DPR peptide; uncoupled (GA)15 peptide
T1 peptide: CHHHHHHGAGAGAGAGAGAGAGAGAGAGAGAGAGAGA

T2: synthesized dipeptide repeat protein (GA)10: H-(GA)10HHHHHH-NH2 (C-terminal amide (-NH2))
T2 peptide: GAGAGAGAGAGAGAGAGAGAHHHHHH

T3: synthesized dipeptide repeat protein (GA)6: H-(GA)6HHHHHH-NH2
T3 peptide: H-GAGAGAGAGAGAHHHHHH-NH2

T4: synthesized dipeptide repeat protein (GA)20: H-(GA)20HHHHHH-NH2 (C-terminal amide (-NH2))
T4 peptide: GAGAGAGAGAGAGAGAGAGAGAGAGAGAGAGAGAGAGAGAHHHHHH

T5: synthetic biotin-8xGA (also: biotin, position not given here)
T5 construct: also called synthetic 8×GA; poly-(GA)8 peptide
T5 peptide: GAGAGAGAGAGAGAGA

T6: (GA)8 repeats
T6 construct: also called poly-(GA)8; GA (e.g., poly(GA))
T6 peptide: GAGAGAGAGAGAGAGA

B1: NI-308.5J10 recombinant human-derived monoclonal antibody (human IgG1, kappa) (antibody, V domains shown)
VH: SETLSLTYTVLGGSVSDYYWSCIRQPAGKGLEWIGRTYTNGKTTYTYNPSLESRLSLSIDTSMNQFSLKLTSVTAADTAVYYCARWGAVTGDYYYGMDVWGPGTLVTVSS
VL: EIVLTQSPLSLSVTPGEPASISCRSPRSLLHTNGYTYLDWYLQRPGQSPQLLIFLASNRASGVPDRFSGSGSGTNFTLRISGVEADDVGVYYCMQGLQPSWTFGQGTKVEIKR
notes: Full hIgG1 heavy chain (plasmid SDD151) and kappa light chain (plasmid SDD152); also called 5J10 hIgG1
B2: NI-308.5J10 variant WT-Fab-6His / N75D light chain (Fab, V domains shown)
VH: B1 VH
VL: B1 VL with N75D
notes: Plasmids SDD178 and SDD177; also called LC N75D Fab; 5J10-LC N75D Fab
B3: NI-308.5J10 variant N54T-Fab-6His / N75D light chain (Fab, V domains shown)
VH: B1 VH with N40T
VL: B1 VL with N75D
notes: Plasmids SDD180 and SDD177; also called HC N54T/LC N75D Fab; 5J10-LC N75D, HC N54T Fab
B4: NI-308.5J10 variant G55S-Fab-6His / N75D light chain (Fab, V domains shown)
VH: B1 VH with G41S
VL: B1 VL with N75D
notes: Plasmids SDD181 and SDD177; also called HC G55S/LC N75D Fab; 5J10-LC N75D, HC G55S Fab
B5: NI-308.5J10 WT Fab-6His (WT-Fab-6His / WT light chain) (Fab, V domains shown)
VH: B1 VH
VL: B1 VL
notes: The heavy chain is VH-CH1 with a C-terminal hexahistidine tag; also called 5J10 Fab
B6: NI-308.5J10 variant G55T-Fab-6His / N75D light chain (Fab, V domains shown)
VH: B1 VH with G41T
VL: B1 VL with N75D
notes: Plasmids SDD182 and SDD177; also called HC G55T/LC N75D Fab; 5J10-LC N75D, HC G55T Fab
B7: NI-308.5J10 variant N54S-Fab-6His / N75D light chain (Fab, V domains shown)
VH: B1 VH with N40S
VL: B1 VL with N75D
notes: Plasmids SDD179 and SDD177; also called HC N54S/LC N75D Fab; 5J10-LC N75D, HC N54S Fab
B8: Fab fragment of DPR Ab-1 (Fab, V domains shown)
VH: QVQLVESGGGVVQPGRSLRLSCAASGFTFSNHAMHWVRQAPGKGLEWVAVISYDGENTYYADSIEGRFTISRDNFKNTLFLQMYSLTADDTAMYFCARGGRRGHFTSYYLDYWGQGTLVTVSS
VL: DIQMTQSPSSLSASVGDRVTITCRASQNIDKYLNWYQQIPGKAPKLLIYAASSLHSGVPSRFSGSGSGTDFSLTISSLQPEDFAIYYCQQSYSSFRTFGQGTKLEIK
notes: also called DPR Ab-1 Fab

Experiments:
[1] = target: T7, BSA-coupled (GA)15 dipeptide repeat protein peptide (H-CHHHHHH(GA)15-OH conjugated via SMCC to bovine serum … (bovine, UniProt P02769 25-607, conjugated via a bifunctional linker (SMCC) to bovine serum albumin (BSA))); assay: indirect ELISA, coated BSA-coupled peptide
T7 construct: also called BSA-coupled peptide; BSA-conjugated poly-GA
T7 sequence (P02769 25-607 limits assumed): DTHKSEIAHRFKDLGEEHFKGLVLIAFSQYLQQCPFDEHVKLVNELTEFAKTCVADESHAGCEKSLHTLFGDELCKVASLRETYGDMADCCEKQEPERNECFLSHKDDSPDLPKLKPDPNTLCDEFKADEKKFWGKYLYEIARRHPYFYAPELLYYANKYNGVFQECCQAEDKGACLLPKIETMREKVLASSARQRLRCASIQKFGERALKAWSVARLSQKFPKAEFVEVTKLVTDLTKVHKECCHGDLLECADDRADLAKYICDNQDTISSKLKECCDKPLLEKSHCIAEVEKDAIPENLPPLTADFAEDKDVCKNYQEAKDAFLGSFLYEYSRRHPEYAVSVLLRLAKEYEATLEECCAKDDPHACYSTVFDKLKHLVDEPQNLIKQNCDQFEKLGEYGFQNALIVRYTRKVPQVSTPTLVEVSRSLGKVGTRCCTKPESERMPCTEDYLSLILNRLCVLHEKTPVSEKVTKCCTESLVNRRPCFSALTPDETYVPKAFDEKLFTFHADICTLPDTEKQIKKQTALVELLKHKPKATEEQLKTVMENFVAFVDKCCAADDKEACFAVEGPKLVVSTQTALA
Description: (§1) In brief, poly-GA dipeptide repeat proteins were synthesized and purified by Schafer-N(Copenhagen, Denmark): (GA)₁₅: H-CHHHHHH(GA)₁₅-OH (SEQ ID NO: 61). Poly-GA DPR protein peptides were then conjugated via a bifunctional linker (SMCC) to bovine serum albumin (BSA). 96-well microplates (Corning Incorporated, Corning, USA) were coated with poly-GA BSA-coupled or uncoupled dipeptide repeat protein peptides at a concentration of 5 μg/ml in coating buffer (15 mM Na₂CO₃, 35 mM NaHCO₃, pH 9.42). Non-specific binding sites were blocked for 1 h at RT with PBS/0.1% Tween®-20 containing 2% BSA (Sigma-Aldrich, Buchs, Switzerland). […] Binding was determined by measurement of HRP activity in a standard colorimetric assay.
(§2) EC₅₀ values were estimated by non-linear regression using GraphPad Prism software (San Diego, USA).

[2] = target: T1, synthesized dipeptide repeat protein …; assay: indirect ELISA, coated peptide
Description: In brief, dipeptide repeat proteins were synthesized and purified by Schafer-N(Copenhagen, Denmark): (GA)₁₅: H-CHHHHHH(GA)₁₅-OH (SEQ ID NO: 61); (GP)₁₅: H-C(GP)₁₅-OH (SEQ ID NO: 62); (GR)₁₅: H-C(GR)₁₅-OH (SEQ ID NO: 63); (PA)₁₅: H-C(PA)₁₅-OH (SEQ ID NO: 64); (PR)₁₅: H—C(PR)₁₅-OH (SEQ ID NO: 65). 96-well microplates (Corning Incorporated, Corning, USA) were coated with dipeptide repeat protein peptides at a concentration of either 5 μg/ml or 20 μg/ml in coating buffer (15 mM Na₂CO₃, 35 mM NaHCO₃, pH 9.42). Non-specific binding sites were blocked for 1 h at RT with PBS/0.1% Tween®-20 containing 2% BSA (Sigma-Aldrich, Buchs, Switzerland). […] Binding was determined by measurement of HRP activity in a standard colorimetric assay.
as §2

[3] = target: T2, synthesized dipeptide repeat protein …; assay: indirect ELISA, peptide coated at 50 µg/ml
Excerpt: (§3) In brief, Dipeptide repeat protein peptides were synthesized and purified by Schafer-N(Copenhagen, Denmark): GA₂₀: H-(GA)₂₀HHHHHH-NH₂ (SEQ ID NO: 71); GA₁₀: H-(GA)₁₀HHHHHH-NH₂ (SEQ ID NO: 72); GA₆: H-(GA)₆HHHHHH-NH₂ (SEQ ID NO: 73); GA₅: H-(GA)₅HHHHHH-NH₂ (SEQ ID NO: 74); GA₄: H-(GA)₄HHHHHH-NH₂ (SEQ ID NO: 75); GA₃: H-(GA)₃HHHHHH-NH₂ (SEQ ID NO: 76); GA₂: H-(GA)₂HHHHHH-NH₂ (SEQ ID NO: 77). 96-well microplates (Corning Incorporated, Corning, USA) were coated with dipeptide repeat protein peptides at a concentration of 50 μg/ml in coating buffer (15 mM Na₂CO₃, 35 mM NaHCO₃, pH 9.42). Non-specific binding sites were blocked for 1 h at RT with PBS/0.1% Tween®-20 containing 2% BSA (Sigma-Aldrich, Buchs, Switzerland). […] Binding was determined by measurement of HRP activity in a standard colorimetric assay. EC₅₀ values were estimated by non-linear regression using GraphPad Prism software (San Diego, USA).
(§4) High affinity binding was detected for poly-GA DPRs harboring 10 (SEQ ID NO: 79) or 20 (GA)-repeats (SEQ ID NO: 82), reflected in an EC₅₀ in the subnanomolar range (Table 5, FIG. 6).

[4] = target: T3, synthesized dipeptide repeat protein …; assay: indirect ELISA, peptide coated at 50 µg/ml
Excerpt: as §3, §4

[5] = target: T4, synthesized dipeptide repeat protein …; assay: indirect ELISA, peptide coated at 50 µg/ml
Excerpt: as §3, §4

[6] = target: T1, synthesized dipeptide repeat protein …; assay: indirect ELISA, coated uncoupled peptide
Description: as §1, §2

[7] = target: T1, synthesized dipeptide repeat protein …; assay: BLI (Octet RED96), peptide immobilised on AR2G sensor, IgG as analyte, 1:1 model
Description: Poly-GA dipeptide repeat protein peptides were synthesized and purified by Schafer-N (Copenhagen, Denmark): (GA)₁₅: H-CHHHHHH(GA)₁₅-OH (SEQ ID NO: 61). Pure, lyophilized (GA)₁₅ (SEQ ID NO: 66) was dissolved in DMSO (Sigma-Aldrich, Buchs, Switzerland) at a concentration of 10 mg/ml and stored at −20° C. In brief, bio-layer interferometry experiments were performed on Octet RED96 instrument (Pall ForteBio LLC, Fremont, USA). Octet amine-reactive (AR2G) biosensors were used for covalent immobilization of (GA)₁₅ (SEQ ID NO: 66) dipeptide repeat protein peptides. AR2G biosensors were activated with EDC (1-Ethyl-3-[3-dimethylaminopropyl] carbodiimide hydrochloride; 20 mM in water; Pall ForteBio LLC, Fremont, USA) and s-NHS (N-hydroxysulfosuccinimide; 10 mM in water; Pall ForteBio LLC, Fremont, USA) for 300 s, followed by loading of the biosensor surface with 5 μg/ml of (GA)₁₅ (SEQ ID NO: 66) peptides in 10 mM acetate buffer pH 6 (Pall ForteBio LLC, Fremont, USA) for 600 s. […] Antibody dissociation was evaluated in kinetics buffer for 800 s. All binding data were referenced by collecting data with a PBS only reference. Data analysis was performed by using the Octet system software (Pall ForteBio LLC, Fremont, USA) with simultaneous Kₐ/Kd global fitting with 1:1 interaction model. BLI sensorgrams were drawn with the Prism software from GraphPad (San Diego, USA) upon fitting.

[8] = target: T5, synthetic biotin-8xGA; assay: SPR (Biacore T200), biotin-8xGA captured on Biotin CAPture chip, Fab as analyte, 1:1 model
Description: Variant Fabs were assessed for binding to synthetic poly-GA by SPR, using a Biacore T200 instrument (GE Healthcare). Synthetic biotin-8xGA was captured on a Biotin CAPture chip (GE Healthcare) at […] from solutions at 5 ng/mL in SPR buffer (10 mM HEPES, pH 7.2, 150 mM NaCl, 3.4 mM EDTA, 0.05% BSA, 0.005% surfactant P20) using reagents and protocols provided by the manufacturer. A series of solutions of variant antibody Fab fragments at increasing concentrations of 1.23, 3.7, 11, 33, and 100 nM in SPR buffer were injected over the biotin-8xGA coated sensor chip for 4 min each at 30 μL/min followed by buffer wash, and the binding response relative to a reference sensor with no biotin-8xGA was recorded during injections and for 15 min after the final injection. Data were analyzed with Biacore T200 Evaluation Software v3.0 using a 1:1 binding model.

[9] = target: T6, (GA)8 repeats; assay: SPR, inset: Fab bound (RU) plotted against [Fab] from 0 to 20000 nM with a fitted saturation curve

Binder	Kd [8] [nM]	koff [8] [s⁻¹]	kon [8] [M⁻¹ s⁻¹]	other results
B1	–	–	–	EC50 [1]: 0.16 nM; EC50 [2]: 0.26 nM; EC50 [3]: 0.3 nM; EC50 [4]: 13.8 nM; EC50 [5]: 0.29 nM; EC50 [6]: 0.23 nM; Kd [7]: 0.15 nM; koff [7]: 2.4e-05 s⁻¹; kon [7]: 163000 M⁻¹ s⁻¹
B2	26	0.0059	230000	–
B3	30	0.0076	260000	–
B4	24	0.0044	180000	–
B5	28	0.0078	270000	–
B6	22	0.0044	200000	–
B7	21	0.006	290000	–
B8	–	–	–	Kd [9]: 4600 nM
